Laboratory results from patent publication US20240245793A1, “PSD-95 INHIBITORS AND USES THEREOF” (priority 2021, published 2024).

Target: PDZ1-2 of PSD-95 (postsynaptic density protein-95), P78352
Test: FP competition against fluorescent dimeric probe, Ki from IC50

Sequence of PDZ1-2 of PSD-95 (postsynaptic density protein-95), P78352 (P78352 61-249 limits assumed): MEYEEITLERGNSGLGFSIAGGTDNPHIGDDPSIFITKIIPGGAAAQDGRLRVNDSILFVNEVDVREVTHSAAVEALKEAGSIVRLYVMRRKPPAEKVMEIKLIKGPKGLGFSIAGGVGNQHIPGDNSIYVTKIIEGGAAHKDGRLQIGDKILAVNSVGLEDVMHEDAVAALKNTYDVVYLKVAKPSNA

B1: compound 17, NPEG4-(KETRV)2 fused to L-TAT (Ac-[…]-) (peptide)
peptide: KETRV
chain: […]
modifications: not checked
Ki: 6.6 nM

B2: compound 13, NPEG4-(KETTV)2 fused to L-TAT (Ac-[…]-) (peptide)
peptide: KETTV
chain: […]
modifications: not checked
Ki: 6.5 nM

B3: compound 19, NPEG4-(ISTDV)2 fused to L-TAT (Ac-[…]-) (peptide)
peptide: ISTDV
chain: […]
modifications: not checked
Ki: 36.1 nM

B4: compound 15, NPEG4-(KETVV)2 fused to L-TAT (Ac-[…]-) (peptide)
peptide: KETVV
chain: […]
modifications: not checked
Ki: 2.1 nM

B5: compound 21, NPEG4-(VETVV)2 fused to L-TAT (Ac-[…]-) (peptide)
peptide: VETVV
chain: […]
modifications: not checked
Ki: 15.8 nM

B6: compound 11, NPEG4-(KETLV)2 fused to L-TAT (Ac-[…]-) (peptide)
peptide: KETLV
chain: […]
modifications: not checked
Ki: 5.4 nM
